The record followed here is patent US20160356723A1, “Light-Up Probes Based On Fluorogens With Aggregation Induced Emission Characteristics For Cellular Imaging And Drug Screening” (NATIONAL UNIVERSITY OF SINGAPORE, priority 2014, published 2016).

One series concerns MDA-MB-231 cells. Nature of the series: MTT cytotoxicity, MDA-MB-231. The class given is cell-based. As to conditions: different concentrations, 72 h. The source says:
(§1) We next studied the cytotoxicity profile of the prodrug to MDA-MB-231 and MCF-7 cells by a MTT assay.

The next series relates to MCF-7 cells. Nature of the series: MTT cytotoxicity, MCF-7. It is filed as cell-based. As to conditions: 72 h. How it is done:
3-(4,5-Dimethythiazol-2-yl)-2,5-diphenyltetrazolium bromide (MTT) assays were used to assess the metabolic activity of U87-MG and MCF-7 cancer cells. The cells were seeded in 96-well plates (Costar, Ill., USA) at an intensity of 4×10^4 cells mL^−1. After 24 h incubation, the medium was replaced by the probe suspension at different concentration of the prodrug and incubated at 37° C. After the designated time intervals, the wells were washed twice with 1×PBS buffer, and 100 μL of freshly prepared MTT (0.5 mg mL^−1) solution in culture medium was added into each well. The MTT medium solution was carefully removed after 3 h incubation in the incubator at 37° C. DMSO (100 μL) was then added into each well and the plate was gently shaken to dissolve all the precipitates formed. The absorbance of MTT at 570 nm was monitored by the microplate reader (Genios Tecan). Cell viability was expressed by the ratio of absorbance of the cells incubated with probe suspension to that of the cells incubated with culture medium only.
We next compared the relationship between the apoptosis induced fluorescence intensity change in cells and the cytotoxicity profile of the prodrug using both U87-MG and MCF-7 cells as an example. The fluorescence intensities at 480 nm are monitored upon excitation at 365 nm after incubation the cells for 6 h. The cytotoxicity of the cells was evaluated by a standard MTT method after the incubation for 72 h. In this experiment, we studied this effect using both U87-MG and MCF-7 cells. […] Also, we can find that higher cell viability of the cells will show lower fluorescence intensity which means low degrees of cell apoptosis. For example, when both cells are treated with 5 μM TPS-DEVD-Pt-cRGD, the cell viability is only 31% for U87-MG cells after 72 h incubation, while in sharp contrast, the cell viability is 92% for MCF-7 cells at the same conditions.
as §1

In the next series the test system is ALP. Kind of series: ALP detection in solution. The note with it: emission maximum changes from 520 nm to 640 nm. The class given is biochemical. The source says: The emission maximum of the solution changes from 520 nm to 640 nm in the presence of ALP.
Series [1] concerns the target T1, recombinant human caspase-3 (Homo sapiens, UniProt P42574).
T1 construct: purchased R&D Systems
T1 sequence (P42574 29-175 limits assumed): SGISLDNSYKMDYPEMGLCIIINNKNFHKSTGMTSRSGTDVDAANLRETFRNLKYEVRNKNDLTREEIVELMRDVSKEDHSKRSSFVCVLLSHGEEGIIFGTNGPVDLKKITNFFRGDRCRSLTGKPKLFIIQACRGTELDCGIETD
T1 sequence (P42574 176-277 limits assumed): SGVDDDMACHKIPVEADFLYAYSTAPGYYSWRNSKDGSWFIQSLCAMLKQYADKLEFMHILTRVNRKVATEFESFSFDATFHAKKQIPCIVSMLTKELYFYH
Nature of the series: Enzymatic assay: fluorescence light-up on DEVD cleavage by caspase-3. It is filed as biochemical. As to conditions: ascorbic acid pretreated TPS-DEVD-Pt-cRGD 10 μM, caspase-3 200 pM, inhibitor 10 μM. How it is done: DMSO stock solutions of TPS-DEVD-Pt-cRGD were diluted with a mixture of DMSO and PIPES (v/v=1/199) to 10 μM. Next, each probe was incubated with ascorbic acid or caspase-3 at room temperature and the change of fluorescence intensity was measured. The PL spectra were collected from 420 to 650 nm under an excitation wavelength at 365 nm.
To study the enzymatic response of TPS-DEVD-COOH, we performed in vitro enzymatic assays with recombinant human caspase-3. Mixtures of the ascorbic acid pretreated prodrug (10 μM) and caspases-3 (200 pM) were prepared and incubated in PIPES buffer. After 1 h incubation, the PL spectra were measured in the range from 425 to 650 nm.
The fluorescence change of the TPS-DEVD-Pt-cRGD solution (10 μM) upon addition of ascorbic acid and caspase-3 enzyme was also monitored over time in a mixture of DMSO/PIPEs (v/v=1/199) buffer. […] We further studied the effect of caspase-3 concentration on the solution emission.

Take `N=C(N)NCCC[C@@H]1NC(=O)[C@H](CCCCNC(=O)[C@H](CC(=O)O)NC(=O)[C@H](CC(=O)O)NC(=O)[C@H](CC(=O)O)NC(=O)[C@H](CC(=O)O)NC(=O)[C@H](CC(=O)O)NC(=O)CCC(=O)[O][Pt-2]([NH3+])([NH3+])([Cl])([Cl])[O]C(=O)CCC(=O)NCCCC[n+]2ccc(/C=C/c3ccc(C(=C(c4ccccc4)c4ccccc4)c4ccccc4)cc3)cc2)NC(=O)[C@@H](Cc2ccccc2)NC(=O)[C@H](CC(=O)O)NC(=O)CNC1=O` [PyTPE-Pt-D5-cRGD]: the cytotoxicity result is “much more obvious” in the series on MDA-MB-231 cells and “minimum toxicity” in the series with MCF-7 cells.

Turning to `CN(C)c1ccc(/C=C/C(=O)c2ccccc2OP(=O)(O)O)cc1` [probe-1], the “optical response to ALP” value in the series on ALP was “distinct optical response”.

As to `[NH3+][Pt-2]([NH3+])([Cl])([Cl])([O]C(=O)CCC(=O)NCCCC[n+]1ccc(/C=C/c2ccc(C(=C(c3ccccc3)c3ccccc3)c3ccccc3)cc2)cc1)[O]C(=O)CCC(=O)N[C@@H](CC(=O)O)C(=O)N[C@@H](CC(=O)O)C(=O)N[C@@H](CC(=O)O)C(=O)N[C@@H](CC(=O)O)C(=O)N[C@@H](CC(=O)O)C(=O)O` [PyTPE-Pt-D5], the cytotoxicity result in the series on MDA-MB-231 cells and with MCF-7 cells was “do not show significant cytotoxicity” each time.

`N=C(N)NCCC[C@@H]1NC(=O)[C@H](CCCCNC(=O)[C@H](CC(=O)O)NC(=O)[C@H](CC(=O)O)NC(=O)[C@H](CC(=O)O)NC(=O)[C@H](CC(=O)O)NC(=O)[C@H](CC(=O)O)NC(=O)CCCCCCC(=O)NCCCC[n+]2ccc(/C=C/c3ccc(C(=C(c4ccccc4)c4ccccc4)c4ccccc4)cc3)cc2)NC(=O)[C@@H](Cc2ccccc2)NC(=O)[C@H](CC(=O)O)NC(=O)CNC1=O` [PyTPE-C6-D5-cRGD]: the cytotoxicity entry with MDA-MB-231 cells and in the series with MCF-7 cells was “do not show significant cytotoxicity” each time.

With `COC[C@@H]1CCCN1S(=O)(=O)c1ccc2c(c1)C(=O)C(=O)N2` [5-[(S)-(+)-2-(methoxymethyl)pyrrolidino]sulfonylisatin, reference compound], the “effect of inhibitor pretreatment on caspase-3 induced probe fluorescence” value in series [1] is “most of the fluorescence is readily competed away”.
